B1: synapsin 1 (natural protein)
chain: not shown
notes: synapsin 1, mouse, endogenous; also called Syn 1; source: endogenous, lysate of crude synaptosomes from P14 mouse neocortex; endogenous, primary mouse neocortical neurons (14 DIV)
B2: β-catenin (natural protein, UniProt Q02248 1-781, looked up)
chain: MATQADLMELDMAMEPDRKAAVSHWQQQSYLDSGIHSGATTTAPSLSGKGNPEEEDVDTSQVLYEWEQGFSQSFTQEQVADIDGQYAMTRAQRVRAAMFPETLDEGMQIPSTQFDAAHPTNVQRLAEPSQMLKHAVVNLINYQDDAELATRAIPELTKLLNDEDQVVVNKAAVMVHQLSKKEASRHAIMRSPQMVSAIVRTMQNTNDVETARCTAGTLHNLSHHREGLLAIFKSGGIPALVKMLGSPVDSVLFYAITTLHNLLLHQEGAKMAVRLAGGLQKMVALLNKTNVKFLAITTDCLQILAYGNQESKLIILASGGPQALVNIMRTYTYEKLLWTTSRVLKVLSVCSSNKPAIVEAGGMQALGLHLTDPSQRLVQNCLWTLRNLSDAATKQEGMEGLLGTLVQLLGSDDINVVTCAAGILSNLTCNNYKNKMMVCQVGGIEALVRTVLRAGDREDITEPAICALRHLTSRHQEAEMAQNAVRLHYGLPVVVKLLHPPSHWPLIKATVGLIRNLALCPANHAPLREQGAIPRLVQLLVRAHQDTQRRTSMGGTQQQFVEGVRMEEIVEGCTGALHILARDVHNRIVIRGLNTIPLFVQLLYSPIENIQRVAAGVLCELAQDKEAAEAIEAEGATAPLTELLHSRNEGVATYAAAVLFRMSEDKPQDYKKRLSVELTSSLFRTEPMAWNETADLGLDIGAQGEALGYRQDDPSYRSFHSGGYGQDALGMDPMMEHEMGGHHPGADYPVDGLPDLGHAQDLMDGLPPGDSNQLAWFDTDL
notes: β-catenin, mouse, endogenous; Endogenous protein, precipitated with mouse anti-β-catenin (BD Biosciences); With HGF a part of it is phosphorylated at Y142; source: endogenous, lysate of crude synaptosomes from P14 mouse neocortex; endogenous, primary mouse neocortical neurons (14 DIV)
B3: MET receptor tyrosine kinase (receptor, UniProt P16056 25-1379, looked up)
chain: ECKEALVKSEMNVNMKYQLPNFTAETPIQNVVLHGHHIYLGATNYIYVLNDKDLQKVSEFKTGPVLEHPDCLPCRDCSSKANSSGGVWKDNINMALLVDTYYDDQLISCGSVNRGTCQRHVLPPDNSADIQSEVHCMFSPEEESGQCPDCVVSALGAKVLLSEKDRFINFFVGNTINSSYPPGYSLHSISVRRLKETQDGFKFLTDQSYIDVLPEFLDSYPIKYIHAFESNHFIYFLTVQKETLDAQTFHTRIIRFCSVDSGLHSYMEMPLECILTEKRRKRSTREEVFNILQAAYVSKPGANLAKQIGASPSDDILFGVFAQSKPDSAEPVNRSAVCAFPIKYVNDFFNKIVNKNNVRCLQHFYGPNHEHCFNRTLLRNSSGCEARSDEYRTEFTTALQRVDLFMGRLNQVLLTSISTFIKGDLTIANLGTSEGRFMQVVLSRTAHLTPHVNFLLDSHPVSPEVIVEHPSNQNGYTLVVTGKKITKIPLNGLGCGHFQSCSQCLSAPYFIQCGWCHNQCVRFDECPSGTWTQEICLPAVYKVFPTSAPLEGGTVLTICGWDFGFRKNNKFDLRKTKVLLGNESCTLTLSESTTNTLKCTVGPAMSEHFNVSVIISNSRETTQYSAFSYVDPVITSISPRYGPQAGGTLLTLTGKYLNSGNSRHISIGGKTCTLKSVSDSILECYTPAQTTSDEFPVKLKIDLANRETSSFSYREDPVVYEIHPTKSFISGGSTITGIGKTLNSVSLPKLVIDVHEVGVNYTVACQHRSNSEIICCTTPSLKQLGLQLPLKTKAFFLLDGILSKHFDLTYVHNPVFEPFEKPVMISMGNENVVEIKGNNIDPEAVKGEVLKVGNQSCESLHWHSGAVLCTVPSDLLKLNSELNIEWKQAVSSTVLGKVIVQPDQNFAGLIIGAVSISVVVLLLSGLFLWMRKRKHKDLGSELVRYDARVHTPHLDRLVSARSVSPTTEMVSNESVDYRATFPEDQFPNSSQNGACRQVQYPLTDLSPILTSGDSDISSPLLQNTVHIDLSALNPELVQAVQHVVIGPSSLIVHFNEVIGRGHFGCVYHGTLLDNDGKKIHCAVKSLNRITDIEEVSQFLTEGIIMKDFSHPNVLSLLGICLRSEGSPLVVLPYMKHGDLRNFIRNETHNPTVKDLIGFGLQVAKGMKYLASKKFVHRDLAARNCMLDEKFTVKVADFGLARDMYDKEYYSVHNKTGAKLPVKWMALESLQTQKFTTKSDVWSFGVLLWELMTRGAPPYPDVNTFDITIYLLQGRRLLQPEYCPDALYEVMLKCWHPKAEMRPSFSELVSRISSIFSTFIGEHYVHVNATYVNVKCVAPYPSLLPSQDNIDGEGNT
notes: MET receptor tyrosine kinase (hepatocyte growth factor receptor), mouse, endogenous; Endogenous protein, precipitated with goat anti-MET (R&D Systems); With HGF the receptor is phosphorylated (pMET blot); source: endogenous, lysate of crude synaptosomes from P14 mouse neocortex; endogenous, primary mouse neocortical neurons (14 DIV)
B4: N-cadherin (natural protein, UniProt P15116 160-906, looked up)
chain: DWVIPPINLPENSRGPFPQELVRIRSDRDKNLSLRYSVTGPGADQPPTGIFIINPISGQLSVTKPLDRELIARFHLRAHAVDINGNQVENPIDIVINVIDMNDNRPEFLHQVWNGSVPEGSKPGTYVMTVTAIDADDPNALNGMLRYRILSQAPSTPSPNMFTINNETGDIITVAAGLDREKVQQYTLIIQATDMEGNPTYGLSNTATAVITVTDVNDNPPEFTAMTFYGEVPENRVDVIVANLTVTDKDQPHTPAWNAAYRISGGDPTGRFAILTDPNSNDGLVTVVKPIDFETNRMFVLTVAAENQVPLAKGIQHPPQSTATVSVTVIDVNENPYFAPNPKIIRQEEGLHAGTMLTTLTAQDPDRYMQQNIRYTKLSDPANWLKIDPVNGQITTIAVLDRESPNVKNNIYNATFLASDNGIPPMSGTGTLQIYLLDINDNAPQVLPQEAETCETPEPNSINITALDYDIDPNAGPFAFDLPLSPVTIKRNWTINRLNGDFAQLNLKIKFLEAGIYEVPIIITDSGNPPKSNISILRVKVCQCDSNGDCTDVDRIVGAGLGTGAIIAILLCIIILLILVLMFVVWMKRRDKERQAKQLLIDPEDDVRDNILKYDEEGGGEEDQDYDLSQLQQPDTVEPDAIKPVGIRRLDERPIHAEPQYPVRSAAPHPGDIGDFINEGLKAADNDPTAPPYDSLLVFDYEGSGSTAGSLSSLNSSSSGGDQDYDYLNDWGPRFKKLADMYGGGDD
notes: N-cadherin (cadherin-2), mouse, endogenous; Endogenous protein, precipitated with rabbit anti-N-cadherin (Santa Cruz Biotechnology); source: endogenous, lysate of crude synaptosomes from P14 mouse neocortex

Key:
Details in all cases: partners not purified
[1] = target: B3; test: proximity ligation; Duolink in situ PLA on fixed primary mouse neocortical neurons at 14 DIV, endogenous proteins, two antibodies (signal means 40 nm or less); PBS or 25 ng/ml HGF for 5, 10 or 30 min; PLA clusters per area of dendrite
[2] = target: B3; test: co-IP; crude synaptosomes from P14 mouse neocortex, PBS or 25 ng/ml HGF for 5 min at 37 °C, lysed in HEPES pH 7.4 buffer with 1% Triton X-100; IP with goat anti-MET, mouse anti-β-catenin or rabbit anti-N-cadherin (control IgG in parallel), protein G plus agarose, washes in lysis buffer plus 150 mM NaCl; Western blot; band ratios as fold change HGF/PBS, 3 experiments
N-cadherin = target: B4; test: as above
β-catenin = target: B2; test: as above

Row | Binder | fold increase in density of PLA signal (HGF against PBS) [1] [fold] | mean fold change (HGF/PBS) of co-immunoprecipitated protein [2] [fold] | mean fold change (HGF/PBS) of co-immunoprecipitated protein (N-cadherin) [fold] | mean fold change (HGF/PBS) of co-immunoprecipitated protein (β-catenin) [fold]
1 | B1 | ~1.5 | 1.8 |  | 
2 | B2 |  | 0.399 | 1.39 | 
3 | B3 |  |  |  | 0.376
4 | B4 |  |  |  | 1.31

Reference: article PMC5002983, “Hepatocyte Growth Factor Modulates MET Receptor Tyrosine Kinase and β-Catenin Functional Interactions to Enhance Synapse Formation” (eNeuro, 2016)
